Test results taken from the nanobody polyreactivity screen of Harvey et al. (2022).

assay: yeast display, Sf9 membrane polyspecificity reagent, FACS + sequencing; frameworks hold sequencing errors
How it was run: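 A synthetic nanobody library was expressed on Saccharomyces cerevisiae BJ5465 by galactose induction for 36–48 hours. The library was stained for 1 hour at 4 °C with 10% biotinylated, detergent-solubilized Sf9 membrane reagent and enriched with streptavidin microbeads before FACS. Low and high (top ~1%) gates were set on anti-HA fluorescence for expression and streptavidin fluorescence for reagent binding, and each polyreactivity label reflects the gate of origin.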

Row | Sequence | polyreactivity (PSR sort gate)
1 | QDQLVESGGGLVQAGGSLRLSSAASGFTFAHYARGWYRQAPGKERELVAAISGSGSSTYYADSVKGRFTISRDNAKNTVYLQMNSLKPEDTAVYYCNVRWYFLYDYWGQGTQVTVSS | low polyreactivity
2 | QDQLVESGGGLVQAGGSLRLSSAASGRIFKWNAMGWYRPAPGTERQLVAAIRWSGTSTYADSVKGRFTISRDNAKNTVYLHMNSLKPEDTAVYYCAAQDVSAPGWWLHYWGQGTQVTVSS | low polyreactivity
3 | QDQLVESGGGLVQAGGSLRLSSAGSGSIFFSYAMGWYRQAPGKEREFVAAINSDDASTYADSVKGRFTISRDNAKNTVYLQMNSLKPEDTAVYYCAASFLWSWYDYWGQGTQVTVSS | low polyreactivity
4 | QDQLVESGGGLVQAGGSLRLTCAASGFTIWYYAMGWYRQAPGKERELVAAISSVSSTKYADSVKGRFTISRDNAKNTVYFQMNSLKPEDTAVYYCAADIVRYWRHGFGWRRYDYWGQGTQVTVSS | high polyreactivity
5 | QDQLVESGGGLVQAGGSLRRSCAASGFTFFIYAMGWYRQAPGKEREFVAAITGSGGSTYYADSVKGRFTISRDNAKNTVYLQMNRLKPEDTAVYYCNKLSYGRSGYWGQGTQVTVSS | high polyreactivity
6 | QDQLVESGGGLVQAGGSLSLSCAASGSIIPNYAMGWYRQAPGKERELVAAISSSGGRTYYADSVKGRFTISRDNAKNTVYLQMNCLKPEDTAVYYCAADTYTSAQHEKYDYWGQGTQVTVSS | low polyreactivity
7 | QDQLVESGGGLVQAGGTLRLRCAATGSTVYPTYAMGWYRQAPGKEWELVATITGSGGYTYYADSVKGRFTISRDNAKNTVYLQINSLKPEDTAVYYCAADRWYSRYTRYGYRGQGTQVTVSS | low polyreactivity
8 | QDQLVESGGGLVQARGSLRLICSASGFIISDYAMGWSRQAPGEERELVAVITWRSGSTYYADSVKGRFTISRDNAKNTVYLQMNSLKPEDTAVYYCAARYYRNYSQGRRLGYNYWGQGTQVTVSS | high polyreactivity
9 | QDQLVESGGGLVQAVGSLRLSCAASGRIFVYNAMGGYRQAPGKEREFVATITSSGGRTYYADSVKGRFTISRDNSKNTVYLQMNSLKPEDTAVYYCAARPQNNGRNPVYRYNYWGQGTQVTVSS | high polyreactivity
10 | QDQLVESGGGLVQEGGSLRLICGASGFIFPTNAMGWYRPAPGKERELVAAISRSGGTTNYADSVKGRFTISRDNAKNTVYLQRNSLKPEDTAVYYCNRGWATWHGPDDYWGQGTQVTVSS | high polyreactivity
11 | QDQLVESGGGLVQEGGSLRLSCAASGRTFISKVMGWYRQAPGKERELVAAISGSSGSTRYADSVKGRFTISRDYAKNTVYLQMNSLKPEDTAVYYCAPRAPWPKWGYYYWGLGTQVTVSS | high polyreactivity
12 | QDQLVESGGGLVQGGGSLRLSCAGSGFTFSRYAMGSYRQAPGKERELVAAITRRRGRTYYADSVKGRFTISLDNAKNTVYFKMNSLYPEDTAVYYCNTDAYRLGYDYWGQGTQVTVSS | high polyreactivity
13 | QDQLVESGGGVVQAGGSLRLSCAASGSTFEYNAMGWYRQAPGKERELVASSTNYADSVKGRFTISRDNAKNTVYLQMNSLKPEDTAVYYCGREQGVNRNHDYWGQGTQVTVSS | low polyreactivity
14 | QDQLVESGRGLVQAGGSLRLSCAASGINIPVYAMGWYRKAPRKERELLAAISSGGSTYYADSVKGRFTISRDNAKNTVYLQMNSLKPEDTAVYYCAAATRSAKYRFGYWGQGTQVTVSS | high polyreactivity
15 | QDQLVESGRGLVQEGGSLRLSCAASGSIFWSNGMGWYRQAPGKERELVATISSSGSDTYYAASVKGRFTISRDTAKNTVYFQMNSLKPEDTAVYYCNVYSIWGTYDYRGQGTQVTVSS | low polyreactivity
16 | QDQLVESGVGFVQAGVSLRLSSAASGSIFYLNAMGWYRQAPGKERELVAAITNGGSTYADSVKGRFTISRDNAKNTVYLPMNSLKPEDPAVYYCATRSWELGDYLGQGTQVTVSS | low polyreactivity
17 | QDQLVESRGGLVQAGGSLRLSCAASGFTFYRYAMGWYRQAPGKERELVAAITWRGTSTYYADSVKGRFTISRDNAKNTVYLQMNSLKPEDTAVYYCNADRGYKYDYWGQGTQVTVSS | high polyreactivity
18 | QDQLVESRGGLVQAGGSLRLSCAASGSIFIENTMGWYRQAPGKERELVAAISGSVGRTFYADSVKGRFTISRDNAKNTVYLQMNSLKPEDTAVYYCAAVRRTSPGWVYYWGQGTRVTVSS | high polyreactivity
19 | QDQLVESRVGLVQAGGSLRLSCAASGRIIPKYAMGWYRQAPGKERELVAAISSSGGSTYYADSVKGRFTISRDYAKNNVYLQMNSLNPEVTAVYYCNVDKATRYRYPGFDYWGQGTQVSVSS | high polyreactivity
20 | QDQLVESRVGLVQAGGSLRLSCAATGFTFLSYTMGWYIQAPCKERELLADNTRSGGSTYYADSVKGRFTISRDNAKNSVYLQMNSLKPEDTAVYFCAARYSYDRYRGSQQFYYWGQGTQVTVSS | high polyreactivity
21 | QDQLVESVGGIVQAGGSLRLRCAASGFIYSRNAIGWYSEAPGKDREFVARIRWSVGSTYYADSVKGRFTISRENAKNTVYLMMTSLKPEVTAVYSCAADYYKRYKYLYDYWGQGTQVTVSS | high polyreactivity
22 | QDQLVESVGGLVQAGGSLRLSCAASGSIFIGYAMGWYRQAPGKERELVAAITSGGSTYADSVKGRFTISRDNAKNTVYLQMNSLKPEDTAVYYCAARFFLVTLDYCGQGTQVTVSS | low polyreactivity

Row | Sequence | polyreactivity (PSR sort gate)
23 | QDQLVESWGGLDKAGGSLLLICDASGSTFKFYTMGWYRQAPGKERELVATIDWSGVSTYYADSVKGRFTISRDNAKNTVYLQMNSLKPEDTAVYYCAARSLRLVGPYYYWGQGTQVTVSS | high polyreactivity
24 | QDQLVETLGGLVQAGASLRLSCAASGSIFGNNAMVWYRQEPGKERELVAAISGTGGTTYADSVKGRFTISRDNAKNTVYLQMNSLKPEDTAVYYWALRVWVRDYPFGYARYGYWGQGTQVTVSS | low polyreactivity
25 | QDQLVQSGGGLVQAGGSLRLSCAASAITFVIYSMGWYRQAPGKERELVAAIDGSDGSTYYADSVKGRFTISRDTAKNTVYLQMNSLKPEDTAVYYCNADTGGYYVTGSYLYNEYDYWGQGTQVTVSS | low polyreactivity
26 | QDQLVQSGGGLVQAGGTLRLSCAASGRIIYVNAMGWYRQAPGKERDFVATITRGGSTYYADSVKGRFTISRDNAKNTVYFQMNSLQPEDTAVYYCATVRGGWKGRGHRNDYWGQGTQVTVSS | high polyreactivity
27 | QDQQVESGGGLVQAGGSLRLSCAASGFTFRKKAKGWYRQAPGKERELVAAISASGGSTYYADSVKGRFTISRDNAKNTVYLQMNSLKPEDTDVFYCARDRSNAFNYWGQGTQVTVSS | high polyreactivity
28 | QEKHVESGGGLVQAGGSLLLSCAASGLTFYHNAMGWYRQAPGKERELVAAISSGGTTNYADSVKGRFTISRDNAKNTVYLQMNSLTPEDTAVYYCAARGWGPTRAYDYWGQGTQVTLSS | high polyreactivity
29 | QEKLQESGSGLVQAGGSLRLSCAASGNIFQDWVMRWYRQAPGKERELVAAISPGAITYYADSVKGRFTISRDNAKNTVYLQTNSLKPEDTAVYYCAAYYIVEYLHGYWGQGTRVTVSS | low polyreactivity
30 | QEQLLESGGGLLQAGGSLRLSCAASGSNFVSVTMGWYRQATGKELELVASIGRGSTTNHADSVKGRFTISRDNAKNIVYLLMNSLKPEDTAVYYCAALESYGKYHGYWGQGTQVTVSS | low polyreactivity
31 | QEQLQERGGGLVQAGGSQRLGCAASGNISDAGYMGLYRQAPGKERELVAAIAAGSNTNYADSVKGRFTISRDNAKNTVYLQMNSLKPEDTAVFYCAVASYALVQYEYWGQGTQVTVNS | low polyreactivity
32 | QEQLQESGGCLVQAGGSLRLSCAASGSIFYVYGMGWFRQPPGKELELVAGINDGTNTNYADSVRGRFTISRDNAKNTVLLQMNSLKPEDTAVYYCAADGNCYQAHEYWGVGTQVTVSS | high polyreactivity
33 | QEQLQESGGCPVLAGGSLRLSCAASGTIFVRLDMGWYRQAPGKEREFVATIGSGSSTYYADSVKGSFTISRDNVKNTVYLQMNSLKPEDTAVYYCAVSAAEQSRHYYWDQGTQVTVSS | low polyreactivity
34 | QEQLQESGGGLVLAGGSLSLSCPESGYISWSFTMGWYRKAPGKEREFVAGITYGGITYYADSVKGRFTIRRDNGKNTVYLQLNSLKPEDTAVFYCAAPQTYPYVYVYWGQGTQVTVCS | high polyreactivity
35 | QEQLQESGGGLVQAGDSPRLSCAESGYISARTGMGSYRQAPGKEREFVAGIASGTSTHYADSVKGRFTISRDNAKNAVYLQMNSLKPEDTAVYYCAKDYRYIFIYPYGWTRYDYWGQGTQVTVSS | low polyreactivity
36 | QEQLQESGGGLVQAGGDLRLSCAESGNIFRDYIMGWYRQAPGKEREFVAGIDRGANTNYADSVKGRFTISRDNAKNTVYLQMNSLKPEDTAVYYCAVHTAIVPDFIYWGQGTQVTVSS | low polyreactivity
37 | QEQLQESGGGLVQAGGSLRLSCAASGNIYDADIMGWYRQAPGKERELVTSITDGGSTNYADSVKGRFTISRDNAKNTVYLQMNSLKPEDTAVYYCAAIAYPDIPTSFDYNSDYSYWGQGTQVTVSS | low polyreactivity
38 | QEQLQESGGGLVQAGGSLRLSCAASGSISGSSTMGWYRQAPGKERELVASIAVGANTNYADSAKGRFTISRDNAKNTVYLQMNSLKPEDTAVYYCAVDYYIYYFHYWGQGTQVTVSS | high polyreactivity
39 | QEQLQESGGGLVQAGGSLRLSCAASGSISQAWYMGWYRQAPGKERELVAAINVGAITYYADSVKGRFSISRDNAKNTVYLPMNSLTPEDTAVYYCAVDQYSEAYYDYWGQGTQATVSS | high polyreactivity
40 | QEQLQESGGGLVQEGGSLRLSCAASGNISPPADMGWYRQAPGKERELVASIGTGGTTNYADSVKGRFTISRDNAKNTVYLQMNSLKPDDTAVYYCAAVRYEYNPYDYWGQGTQVTVSS | low polyreactivity
41 | QEQLQESGGGMVQVGGTLRLSCAATGTIFIYGFLGWNRQAPGKERELVASINLGGITNYADSVKGRFTISRDNAKNTVYLQMISLKPEDTAVYYCAAYLVTGQNYGYWGQGTQVTVSS | low polyreactivity
42 | QEQLQESGSGLVQAGGSLRLICAASRNIFQDWVMGWYRKEPGKEPELVAAISPGAITYYADSVKGRFTISRDNAKNTVYLQTNSLKPEDTAVYYCGAYYIVEYLHGYWGQGTRVTVSS | low polyreactivity
43 | QEQLVESAGGLVQAGGSLRLSCAASGSTFYRYAMGWNRQAPGKERELVAAITSSGGSTYYADSVKGRFTISRDNAKNTVYLQMNRLKPEDTAVYYWNAVRRRQSDYWGQGTQVTVSS | high polyreactivity
